Measured values taken from patent US7879859B2, “Diagnosis and treatment of type 2 diabetes and other disorders” (Merck Sharp & Dohme Corp., priority 2005, dated 2011).
Values joined by “and” are separate entries in the source; they are usually repeats but may differ in a detail not shown here. Equal entries are not always repeated. d = 2'-deoxy (DNA); r = 2'-OH (RNA)

What was measured:
isolated mouse islets = assay: Glucose-stimulated insulin secretion (GSIS) in isolated mouse islets; format: cell-based; conditions: 10 nM Octreotide, FIG. 1
Protocol: Pancreatic islets of Langerhans were isolated from the pancreas of normal C57BL/6J mice (Jackson Laboratory, Maine) by collagenase digestion and discontinuous Ficoll gradient separation, a modification of the original method of Lacy and Kostianovsky (Lacy et al., Diabetes 16:35-39, 1967). The islets were cultured overnight in RPMI 1640 medium (11 mM glucose) before GSIS assay. To measure GSIS, islets were first preincubated for 30 minutes in the Krebs-Ringer bicarbonate (KRB) buffer with 2 mM glucose (in petri dishes). The KRB medium contains 143.5 mM Na^+, 5.8 mM K^+, 2.5 mM Ca^2+, 1.2 mM Mg^2+, 124.1 mM Cl^−, 1.2 mM PO4^3−, 1.2 mM […], 25 mM CO3^2−, 2 mg/ml bovine serum albumin (pH 7.4). The islets were then transferred to a 96-well plate (one islet/well) and incubated at 37° C. for 60 minutes in 200 μl of KRB buffer with 2 or 16 mM glucose, and other agents to be tested such as octreotide and a SST3 antagonist. (Zhou et al., J. Biol. Chem. 278:51316-51323, 2003.) Insulin was measured in aliquots of the incubation buffer by ELISA with a commercial kit (ALPCO Diagnostics, Windham, N.H.).

INS-1 (832/13) cells = assay: GSIS assay after siRNA mediated gene knockdown; format: cell-based, rat; conditions: compared to random sequence siRNA, 48 hours after electroporation
Protocol: Three 21-mer siRNA oligos were designed against each candidate gene and used as a pool at the final concentration of 20 uM. The siRNA oligos were delivered to the cells by Nucleofector Device (Amaxa, Gaithersburg, Md.). The INS-1 (832/13) cells were trypsinized, centrifuged, and resuspended in 100 ul Nucleofector solution V (2.25×10^6 cells per reaction). Seven and a half microliters of pooled siRNA were then added to the cell suspension. The cells were electroporated with Amaxa Nucleofector Device program T21. After electroporation, the cells were transferred and split into 9 wells in 96-well plate with 200 ul of regular culture medium (RPMI 1640 with 10% FCS and 11 mM glucose).
GSIS assays were performed after 48 hours. Prior to the assay, cells were washed once with glucose-free Krebs-Ringer Bicarbonate (KRB) medium and cells were incubated with the KRB medium for another 2 hours. The medium were replaced with fresh KRB supplemented with 2, 8, and 16 mM glucose and the cells were incubated for another 2 hours. Supernatants were taken out at the end of incubation for insulin measurement by Ultrasensitive Rat Insulin ELISA kit (ALPCO, Salem, N.H.).
GSIS assays were performed 48 hours after electroporation. The ratios of insulin concentration measured between 8 mM and 2 mM (G8/G2) and 16 mM and 2 mM (G16/G2) glucose treatments are functional readouts for GSIS. […]

sst3 mRNA = assay: sst3 knockdown by Taqman real-time PCR; format: cell-based, rat; conditions: 48 hours after siRNA treatment; INS-1 832/13 cells
Protocol: The degree of gene knockdown by the siRNA oligos was quantified by Taqman real-time PCR also at 48 hours after electroporation. The method consistently obtained >70% knockdown of the target genes mRNA. We used PDE3b (phosphodiesterase 3B) and GCK (glucokinase) as two positive controls. As shown in Example 5, Table 6 (infra), compared to control-shocked INS-1 cells (using random sequence siRNA oligos), knocking down PDE3b increased GSIS by 1.5 to 3 fold, consistent with its role in hydrolyzing cAMP, a key positive mediator of GSIS.
The degree of sst3 knockdown was also examined 48 hours after siRNA treatment using Taqman real-time PCR. The rat sst3 specific probes were designed using Primer Express Software (Applied Biosystem) based on SEQ ID NO: 7 (Forward Primer: […] (SEQ ID NO: 15); Reverse Primer: […] (SEQ ID NO: 16); Probe: […] (SEQ ID NO: 17)). We observed about 55-75% reduction of sst3 mRNA in siRNA-treated cells.

Molecule: C[C@@H](O)[C@@H]1NC(=O)[C@H](CCCCN)NC(=O)[C@@H](Cc2c[nH]c3ccccc23)NC(=O)[C@H](Cc2ccccc2)NC(=O)[C@@H](NC(=O)[C@H](N)Cc2ccccc2)CSSC[C@@H](C(=O)N[C@H](CO)[C@@H](C)O)NC1=O [Octreotide]
- Effect on GSIS (isolated mouse islets): significantly suppressed

B1: si-SST3: pool of three pairs of siRNA oligos against rat sst3 (SEQ ID NO: 9-14) (nucleic acid)
chain 1: CCUUUCGGCUCUCUCAUGUTT
chain 2: GGGUUUGCUGGGCAAUUCATT
chain 3: CUGACGAACUCUUCAUGCUTT
chain 4: ACAUGAGAGAGCCGAAAGGTT
chain 5: UGAAUUGCCCAGCAAACCCTT
chain 6: AGCAUGAAGAGUUCGUCAGTT
modifications: sugars from the 5' end r19 d2, backbone not given here
- Normalized fold of stimulation of GSIS, G8/G2 (INS-1 (832/13) cells; insulin ratio 8 mM/2 mM glucose): 2.9 and 3 and 2.8
- Normalized fold of stimulation of GSIS, G16/G2 (INS-1 (832/13) cells; insulin ratio 16 mM/2 mM glucose): 4.4 and 2.9 and 2.7 and 4.3
- Reduction of sst3 mRNA (sst3 mRNA): 55-75%
